This experiment concerns the target SARS-CoV-2 RBD trimer protein (SARS-CoV-2 | bacteriophage T4) (UniProt P0DTC2). The experiment is described as follows: SEC; Superdex 200 Increase 10/300 GL; four peaks, peak 3 taken as the trimer by expected size and Western blotting under non-reducing conditions.

By stoichiometry N is commonly meant a count of units in the complex or per binding partner. As for “SARS-CoV-2 RBD trimer protein (from UniProt P0DTC2 319-541) (domain or fragment)”, the stoichiometry N stood at 3.
